# Test results reported in US20250195685A1 (CAPSTAN THERAPEUTICS, published 2025).
# Where a chain is given by its changes, count along the chain named. Names and notes keep the numbering of the source.
# B1: CBD1036 (Fab, V domains shown)
# VH: QVQLVQSGAEVKKPGASVKISCKASRYTFTDYNLHWVRQAPGQGLEWIGFIYPYNGGTGYAQKFQGRATLTVDTSTSTAYMELSSLRSEDTAVYYCARDHRYNEGVSFDYWGQGTTLTVSS
# VL: DIQLTQSPSSLSASVGDRATITCRASESVDGFGNSFMNWYQQKPGKAPKLLIYLASNLESGVPSRFSGSGSRTDFTLTISSVQPEDFATYYCQQNNEDPYTFGQGTKLEIK
# notes: also called h1017-H3/L3 F(ab)
# B2: CBD1033.45 disulfide-engineered F(ab') analog (IgG1, truncated T238, C233S) (Fab, V domains shown)
# VH: B1 VH with I20V, I48M, A68V, L70M, L117V
# VL: DIQLTQSPSSLSASVGDRATITCRASESVDGFGNSFMNWYQQKPGKAPKLLIYLASNLESGVPSRFSGSGSGTDFTLTISSVQPEDFATYYCQQNNEDPYTFGQGTKLEIKR
# notes: also called .45 design
# B3: CBD1445 Fab (VL D30A of CBD1033) (Fab, V domains shown)
# VH: B1 VH with I20V, I48M, A68V, L70M, L117V
# VL: B1 VL with D30A, R72G
# B4: CBD1035 (Fab, V domains shown)
# VH: B1 VH
# VL: B1 VL with R72G
# notes: also called h1017-H3/L2 F(ab)
# B5: CBD1040 (Fab, V domains shown)
# VH: B1 VH with T74Y
# VL: B1 VL
# notes: also called h1017-H5/L3 F(ab)
# B6: CBD1046 (antibody, human IgG1, kappa, L234A L235A, V domains shown)
# VH: B1 VH with I20V, Q65K, A68V, L70I, V72A, T116L, L117V
# VL: EIVLTQSPGTLSLSPGERATLSCRASESVDGFGNSFMNWYQQKPGQAPRLLIYLASNLESGVPARFSGSGSRTDFTLTISRLEPEDFAVYYCQQNNEDPYTFGQGTKVEIKR
# notes: also called h1017-H8/L6 whole antibody hIgG1-LALAPA
# B7: CBD1038 (Fab, V domains shown)
# VH: B1 VH with I20V, I48M, A68V, L70M, T74Y, L117V
# VL: B1 VL
# notes: also called h1017-H4/L3 F(ab)
# B8: CBD1039 (Fab, V domains shown)
# VH: B1 VH with T74Y
# VL: B1 VL with R72G
# notes: also called h1017-H5/L2 F(ab)
# B9: CBD1037 (Fab, V domains shown)
# VH: B1 VH with I20V, I48M, A68V, L70M, T74Y, L117V
# VL: B1 VL with R72G
# notes: also called h1017-H4/L2 F(ab)
# B10: CBD1623 Fab (VL D30S and VH N55A of CBD1033) (Fab, V domains shown)
# VH: B1 VH with I20V, I48M, N55A, A68V, L70M, L117V
# VL: B1 VL with D30S, R72G
# notes: also called D30S and N55A
# B11: CBD1380 (Fab, V domains shown)
# VH: B1 VH with I20V, I48M, N55S, A68V, L70M, L117V
# VL: B1 VL with R72G
# B12: CBD1041 (antibody, human IgG1, kappa, L234A L235A, V domains shown)
# VH: B1 VH with I20V, I48M, G59N, A68V, L70I, V72A, T116L, L117V
# VL: B6 VL with V62I, R72G
# notes: also called h1017-H6/L4 whole antibody hIgG1-LALAPA
# B13: CBD1042 (antibody, human IgG1, kappa, L234A L235A, V domains shown)
# VH: B1 VH with I20V, A68V, L70I, V72A, T116L, L117V
# VL: B6 VL with V62I, R72G
# notes: also called h1017-H7/L4 whole antibody hIgG1-LALAPA
# B14: CDB1017p (Fab, V domains shown)
# VH: EVQLQQSGPELVKPGASVKISCKASRYTFTDYNLHWVKLSHEKSLEWIGFIYPYNGGTGYNQKFKNKAKLTVDYSSSTAYMELRSLTSVDAAVYYCARDHRYNEGVSFDYWGQGTTLTVSS
# VL: NIVLTQSPASLAVSLGQRATISCRASESVDGFGNSFMNWYQQKPGQSPKLLIYLASNLESGVPARFSGSGSRTDFTLTIDPVEADDAATYYCQQNNEDPYTFGGGTKLEIK
# notes: CDB1017p [sic]; also called CBD1017p; mouse CT8 F(ab)
# Legend:
# [1] = biological target: T1, human CD8αα homodimer, recombinant protein (Acro Biosystems) (human, UniProt P01732 22-182); assay: BLI kinetics, F(ab) on biotinylated CD8α (SA-XT sensor), 1:1 fit, 37 °C [CONT'ED]
# T1 construct: also called CD8αα antigen; biotinylated CD8α recombinant protein (CDA-H82E3)
# T1 sequence (P01732 22-182 limits assumed): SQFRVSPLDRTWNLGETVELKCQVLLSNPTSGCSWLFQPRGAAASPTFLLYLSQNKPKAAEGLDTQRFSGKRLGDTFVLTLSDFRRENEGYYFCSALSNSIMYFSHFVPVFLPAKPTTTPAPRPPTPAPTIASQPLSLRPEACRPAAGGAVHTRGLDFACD
# Experimental: (§1) Biolayer interferometry kinetic assays were performed using a GatorBio Gator Plus BLI system. Kinetic buffer containing PBS plus 0.1% Tween 20 and 0.2% BSA was used for calculating the baseline. To measure the binding kinetics of anti-CD8α antibody fragment (Fab), streptavidin-immobilized SA-XT sensors (#160029, Gator Bio) were prehydrated in the kinetic buffer and loaded with […] biotinylated CD8α recombinant protein (CDA-H82E3, Acro Biosystems) at a spin speed of 400 rpm to a threshold response of 10 nm. The sensors were then incubated in the kinetic buffer for 300 s to acquire a baseline measurement prior to each association. […] The antigen-loaded sensors were incubated in the diluted solutions to capture Fab fragments for 300 s to record the association phase. Sensors were finally incubated in the kinetic buffer for 900 s to record the dissociation phase. The spin speed for all steps except the antigen loading step was 1000 rpm. The temperature of the performed assays was either 30° C. or 37° C. during the association and dissociation phases. Sensor data were baseline subtracted, and global curve fitting of the kinetic data from six different analyte concentrations at a 1:1 monovalent binding model was performed using GatorOne software (version v2.10) to determine kinetic rate constants (kₒₙ and koff) and equilibrium dissociation constants (KD) of the analyzed antibodies.
# [2] = biological target: T1, human CD8αα homodimer, recombinant …; assay: BLI kinetics, F(ab) on biotinylated CD8α (SA-XT sensor), 1:1 fit, 30 °C
# Experimental: as §1
# [3] = biological target: T1, human CD8αα homodimer, recombinant …; assay: BLI kinetic assay, engineered F(ab') fragment
# Experimental: The global fitting was performed with a 1:1 fitting model using GatorOne software as described below.
# as §1
# [4] = biological target: T1, human CD8αα homodimer, recombinant …; assay: BLI kinetic rate analysis, Fab fragment (temperature not given)
# Experimental: as §1
# [5] = biological target: T1, human CD8αα homodimer, recombinant …; assay: BLI steady state, whole hIgG1-LALAPA antibody on CD8α-His (Ni-NTA sensor), 30 °C
# Experimental: To assess affinity of whole antibodies, steady state analysis was used as the bivalent nature of both whole antibody and CD8α complicates kinetic analysis. 50 nM CD8α-His (that is, CD8α with a C-terminal oligohistidine tag; Acro) was immobilized on Ni-NTA sensor probes. Binding was analyzed with a three-fold antibody dilutions series: 60 nM, 20 nM, 6.67 nM, 2.22 nM, 0.74 nM, and 0.25 nM. The antigen-loaded sensors were incubated in the diluted solutions to capture the whole IgG antibody for 300 s to record the association phase. Sensors were incubated in the kinetic buffer for 900 s to record the dissociation phase. The spin speed was 1000 rpm for all steps except the antigen loading step which was 400 rpm to control density of the antigen. The temperature of the performed assays was at 30° C. during the association and dissociation phases. The sensor data were baseline subtracted and further analyzed in GatorOne software (version 2.10) to determine the equilibrium dissociation constants (KD) of the antibodies by fitting the signals of the steady states to the 1:1 binding model.
Binder,Kd [1],koff [1],kon [1],Kd [2],koff [2],kon [2],further results
B1,1.68 nM,0.000194 s⁻¹,117000 M⁻¹ s⁻¹,6.16 nM,0.000207 s⁻¹,33700 M⁻¹ s⁻¹,–
B2,–,–,–,–,–,–,Kd [3]: 9.03 nM; koff [3]: 0.000117 s⁻¹; kon [3]: 13000 M⁻¹ s⁻¹
B3,–,–,–,–,–,–,Kd [4]: 15.6 nM; koff [4]: 0.00048 s⁻¹; kon [4]: 30700 M⁻¹ s⁻¹
B4,8.02 nM,9.12e-05 s⁻¹,11400 M⁻¹ s⁻¹,3.07 nM,0.000144 s⁻¹,46900 M⁻¹ s⁻¹,–
B5,7.39 nM,0.000103 s⁻¹,14000 M⁻¹ s⁻¹,6.07 nM,0.00017 s⁻¹,28000 M⁻¹ s⁻¹,–
B6,–,–,–,–,–,–,Kd [5]: 9.78 nM
B7,7.42 nM,0.00014 s⁻¹,18900 M⁻¹ s⁻¹,2.31 nM,0.000146 s⁻¹,63300 M⁻¹ s⁻¹,–
B8,4.59 nM,9.27e-05 s⁻¹,20200 M⁻¹ s⁻¹,3.11 nM,0.000157 s⁻¹,50400 M⁻¹ s⁻¹,–
B9,1.27 nM,9.71e-05 s⁻¹,76800 M⁻¹ s⁻¹,1.72 nM,0.000114 s⁻¹,66000 M⁻¹ s⁻¹,–
B10,–,–,–,–,–,–,Kd [4]: 0.617 nM; koff [4]: 7.02e-05 s⁻¹; kon [4]: 114000 M⁻¹ s⁻¹
B11,–,–,–,–,–,–,Kd [4]: 1.93 nM; koff [4]: 0.000116 s⁻¹; kon [4]: 59900 M⁻¹ s⁻¹
B12,–,–,–,–,–,–,Kd [5]: 10.2 nM
B13,–,–,–,–,–,–,Kd [5]: 3.59 nM
B14,–,–,–,1.19 nM,7.76e-05 s⁻¹,65100 M⁻¹ s⁻¹,–
